Patent US20260109747A1

What was measured:
Assay in all cases: cell-based or functional assay
[1] = target: cynomolgus monkey IL-2Rα/β/γ (cynomolgus monkey)
[2] = target: human IL-2Rα/β/γ (human) (UniProt P01589)
[3] = target: human IL-2Rβ/γ (human) (UniProt P14784)
[4] = target: T1, mouse IL-2Rβ/γ (mouse) (UniProt P16297)
T1 sequence (looked up) 1: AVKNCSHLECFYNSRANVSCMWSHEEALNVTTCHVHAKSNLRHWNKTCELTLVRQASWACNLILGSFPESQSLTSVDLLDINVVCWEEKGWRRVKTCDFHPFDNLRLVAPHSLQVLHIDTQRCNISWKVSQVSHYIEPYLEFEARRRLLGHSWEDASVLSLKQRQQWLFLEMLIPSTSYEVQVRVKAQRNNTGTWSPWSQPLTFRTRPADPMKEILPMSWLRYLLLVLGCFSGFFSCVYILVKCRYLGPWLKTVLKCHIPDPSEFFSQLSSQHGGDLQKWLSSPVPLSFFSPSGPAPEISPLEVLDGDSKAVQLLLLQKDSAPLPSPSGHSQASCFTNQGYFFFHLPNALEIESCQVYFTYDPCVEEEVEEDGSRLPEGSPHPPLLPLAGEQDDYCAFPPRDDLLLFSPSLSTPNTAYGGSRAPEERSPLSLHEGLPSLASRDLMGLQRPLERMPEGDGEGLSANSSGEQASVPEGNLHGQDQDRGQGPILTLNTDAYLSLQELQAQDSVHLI
T1 sequence (looked up) 2: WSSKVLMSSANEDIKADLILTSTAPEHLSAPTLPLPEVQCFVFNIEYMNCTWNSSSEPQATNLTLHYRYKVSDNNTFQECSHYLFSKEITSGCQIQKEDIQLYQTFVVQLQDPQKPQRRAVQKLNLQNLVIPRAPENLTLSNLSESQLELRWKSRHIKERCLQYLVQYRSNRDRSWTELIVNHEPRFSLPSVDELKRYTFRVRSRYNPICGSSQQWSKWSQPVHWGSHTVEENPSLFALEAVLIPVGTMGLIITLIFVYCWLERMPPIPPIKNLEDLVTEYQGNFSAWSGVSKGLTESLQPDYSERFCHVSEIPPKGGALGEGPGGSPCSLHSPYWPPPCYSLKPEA

Chain of his-tagged mammalian expressed control human IL-2, compound 13 (P60568 other isoform, or with tags, fused parts or gaps limits assumed): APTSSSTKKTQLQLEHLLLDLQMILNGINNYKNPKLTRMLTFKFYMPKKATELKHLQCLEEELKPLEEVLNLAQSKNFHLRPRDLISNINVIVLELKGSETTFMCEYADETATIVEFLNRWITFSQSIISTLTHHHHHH
Chain of human IL-2Rβ/γ (human) (P14784 27-551, chain 1 of 2): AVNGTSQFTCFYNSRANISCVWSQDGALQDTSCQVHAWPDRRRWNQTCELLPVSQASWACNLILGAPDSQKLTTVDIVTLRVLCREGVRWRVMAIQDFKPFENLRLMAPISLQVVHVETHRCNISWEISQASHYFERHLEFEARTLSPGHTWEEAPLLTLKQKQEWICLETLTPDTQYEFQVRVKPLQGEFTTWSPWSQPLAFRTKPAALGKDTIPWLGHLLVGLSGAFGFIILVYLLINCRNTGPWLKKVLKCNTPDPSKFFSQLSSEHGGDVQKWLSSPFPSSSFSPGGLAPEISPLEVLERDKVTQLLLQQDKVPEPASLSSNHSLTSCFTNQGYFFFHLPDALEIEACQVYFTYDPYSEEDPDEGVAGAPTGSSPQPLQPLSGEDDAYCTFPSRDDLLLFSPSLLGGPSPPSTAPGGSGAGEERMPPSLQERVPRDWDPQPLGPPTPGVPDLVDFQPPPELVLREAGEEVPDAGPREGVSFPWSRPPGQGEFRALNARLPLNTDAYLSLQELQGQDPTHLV
Chain of human IL-2Rβ/γ (human) (P31785 23-369, chain 2 of 2, further chain): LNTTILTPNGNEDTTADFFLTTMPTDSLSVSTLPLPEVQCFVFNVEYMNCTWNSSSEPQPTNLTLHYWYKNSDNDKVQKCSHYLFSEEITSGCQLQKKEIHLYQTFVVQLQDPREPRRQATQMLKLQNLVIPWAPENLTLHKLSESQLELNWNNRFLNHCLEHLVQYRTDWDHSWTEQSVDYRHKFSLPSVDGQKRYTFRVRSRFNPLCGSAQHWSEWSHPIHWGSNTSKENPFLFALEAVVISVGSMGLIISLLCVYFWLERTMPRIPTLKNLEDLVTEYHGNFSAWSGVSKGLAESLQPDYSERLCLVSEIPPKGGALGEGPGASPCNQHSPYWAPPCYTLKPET
Chain of human IL-2Rα/β/γ (human) (P01589 22-272, chain 1 of 3): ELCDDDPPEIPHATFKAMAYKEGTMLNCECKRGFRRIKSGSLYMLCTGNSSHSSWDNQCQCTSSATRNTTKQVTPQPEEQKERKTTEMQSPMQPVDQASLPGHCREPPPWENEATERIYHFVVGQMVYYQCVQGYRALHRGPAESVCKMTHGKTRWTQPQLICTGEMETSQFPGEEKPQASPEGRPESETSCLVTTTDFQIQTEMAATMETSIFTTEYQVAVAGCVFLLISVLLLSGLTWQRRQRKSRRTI
Chain of human IL-2Rα/β/γ (human) (P14784 27-551, chain 2 of 3, further chain): as the sequence (P14784 27-551, chain 1 of 2) above
Chain of human IL-2Rα/β/γ (human) (P31785 23-369, chain 3 of 3, further chain): as the sequence (P31785 23-369, chain 2 of 2, further chain) above

## his-tagged mammalian expressed control human IL-2, compound 13 (from UniProt P60568 21-153) (ligand)
[1]
  pSTAT5 EC50, Treg, cynomolgus monkey whole blood: 0.09 ng/mL
[2]
  pSTAT5 EC50, Treg, human whole blood: 0.09 ng/mL
[3]
  pSTAT5 EC50, CD8, human blood (additional experiments): 4.94 ng/mL
  pSTAT5 EC50, CD8, human whole blood: 25.7 ng/mL
  pSTAT5 EC50, NK, human blood (additional experiments): 17.6 ng/mL
  pSTAT5 EC50, NK, human whole blood: 6.01 ng/mL
[4]
  pSTAT5 EC50, CD8, mouse blood: 24000 ng/mL
  pSTAT5 EC50, NK, mouse blood: 9690 ng/mL
